Test [1] addresses T1, HLA-A2 (HLA-A2:01) on T2 cells (human).
T1 construct: detected with anti-HLA-A2 mAb BB7.2
The test can be described thus: HLA-A2 stabilization assay on T2 cells (anti-HLA-A2-PE, flow cytometry), single peptide concentration [panel D].

In test [2] the target is T1, HLA-A2 (HLA-A2:01) on T2 cells. The test can be described thus: HLA-A2 stabilization assay on T2 cells, peptide titration; amplitude relative to that of reference peptide YLE [panel D].
For test [3] the target is unchanged. The test can be described thus: HLA-A2 stabilization assay on T2 cells, peptide titration, flow cytometry with anti-HLA-A2 BB7.2; column Affinity for HLA A2:01 (M). (A flow cytometer gives signals particle by particle.)
The target is the same in test [4]. Kind of test: HLA-A2 stabilization assay on T2 cells (anti-HLA-A2-PE, flow cytometry), single peptide concentration 25 ug/mL [panel E].
The target is the same in test [5]. Kind of test: HLA-A2 stabilization assay on T2 cells, peptide titration; amplitude = highest data point corrected for baseline [panel E].
The target is the same in test [6]. Kind of test: HLA-A2 stabilization assay on T2 cells, peptide titration (Example 2, repeated); column Affinity for HLA.A2.01 (M).

As a reminder, the EC50 is the concentration needed to bring the measured effect to its halfway point. Read a high EC50 as lower potency in that assay.

B1: Epitope 5 peptide LIIRAEELAQM of ROPN1 and ROPN1B (peptide)
peptide: LIIRAEELAQM
notes: 11-mer found by immunopeptidomics; tested as synthetic peptide
As to B1, the Minimum stability in test [1] was 1.38 fold change over baseline; in test [4], 1.27 fold change over baseline. Besides, the Amplitude in test [2] is 0.918 relative to YLE; in test [5] it was 3170 geometric mean normalized to baseline. In addition, the EC50 in test [3] and in test [6] was 6.99 µM throughout.
On to AQMWKVVNL (Synthetic peptide) [Epitope 8 peptide AQMWKVVNL of ROPN1 and ROPN1B], for which the Minimum stability in test [1] stood at 1.4 fold change over baseline; in test [4] it was 1.29 fold change over baseline. In addition, the Amplitude was 0.924 relative to YLE in test [2] and 3480 geometric mean normalized to baseline in test [5]. Besides, the EC50 worked out at 11.4 µM in test [3] and 10.5 µM in test [6].
As for FLYTYIAKV (Synthetic peptide) [Epitope 4 (FLY-A) peptide FLYTYIAKV of ROPN1], the Minimum stability is 1.63 fold change over baseline in test [1] and 1.5 fold change over baseline in test [4]. Further, the results for the Amplitude in test [2] and in test [5] were 0.888 relative to YLE and 2710 geometric mean normalized to baseline, respectively. Moreover, the EC50 in test [3] turned out to be 10.9 µM; in test [6] it was 8.11 µM.
Turning to ALACSALGV (Synthetic peptide) [Epitope 7 peptide ALACSALGV of ROPN1 and ROPN1B], the Minimum stability stood at 1.26 fold change over baseline in test [1] and 1.37 fold change over baseline in test [4]. In addition, the Amplitude in test [2] was 0.852 relative to YLE; in test [5], 2180 geometric mean normalized to baseline. Also, the EC50 stood at 3.16 µM in test [3] and 2.84 µM in test [6].

B2: Epitope 1 (MLN) peptide MLNYIEQEV of ROPN1B (peptide)
peptide: MLNYIEQEV
notes: Synthetic peptide (ThinkPeptides/ProImmune)
As to B2, the Minimum stability in test [1] was determined as 1.4 fold change over baseline; in test [4], 1.13 fold change over baseline. The results for the Amplitude in test [2] and in test [5] were 0.935 relative to YLE and 3450 geometric mean normalized to baseline, respectively. Further, the results for the EC50 in test [3] and in test [6] were 6.56 µM and 4.82 µM, respectively.
With FQFLYTYIA (Synthetic peptide) [Epitope 6 peptide FQFLYTYIA of ROPN1 and ROPN1B], the Minimum stability is 1.14 fold change over baseline in test [1] and 1.32 fold change over baseline in test [4]. The Amplitude was 0.739 relative to YLE in test [2] and 2380 geometric mean normalized to baseline in test [5]. Also, the concentration for a half-maximal effect (EC50) in test [3] came to 3.28 µM; in test [6] it was 3.43 µM.
With KMLKEFAKA (Synthetic peptide) [Epitope 9 peptide KMLKEFAKA of ROPN1 and ROPN1B], the results for the Minimum stability in test [1] and in test [4] were 1.2 fold change over baseline and 1.19 fold change over baseline, respectively. Further, the Amplitude in test [2] was 0.842 relative to YLE; in test [5], 2660 geometric mean normalized to baseline. The EC50 in test [3] was determined as 91.2 µM; in test [6], 38.2 µM.
Consider KTLKIVCEV (Synthetic peptide) [Epitope 3 peptide KTLKIVCEV of ROPN1 and ROPN1B], for which the Minimum stability was 1.26 fold change over baseline in test [1] and 1.18 fold change over baseline in test [4]. In addition, the Amplitude in test [2] is 0.844 relative to YLE; in test [5] it was 2620 geometric mean normalized to baseline. Besides, the results for the EC50 in test [3] and in test [6] were 4.35 µM and 4.4 µM, respectively.

Values taken from patent US20240131155A1, “T CELLS FOR USE IN THERAPY” (Erasmus University Medical Center Rotterdam, priority 2021, published 2024).
